Measured values: the supplement of paper PMC10724198
± gives the standard deviation of the averaged measurements.

What follows are sequences tested on Saccharomyces cerevisiae (assay: protein stability index of tFT-peptide fusion (C-terminal peptide) (PSI (0-1 scale)); higher = more stable (slower turnover)). Conditions: genetic background: doa10 deletion; temperature: 30 C.
Procedure: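 MPS profiling in S. cerevisiae of the tFT-X12 degron library: putative degron peptides plus stable controls, 12 aa, fused to the C-terminus of a sfGFP-mCherry timer. Cells are FACS-sorted into 8 mCherry/sfGFP bins and deep-sequenced. PSI runs from 0 (unstable) to 1 (stable). Backgrounds are wild type, das1Δ and doa10Δ at 30 °C, and wild type, das1Δ, cdc34-1 and cdc53-1 at 37 °C; 2-3 technical replicates each.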
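Note: PSI is a weighted mean of sequencing reads over stability bins, variants kept only with over 10 reads, mCherry proximal and sfGFP distal, peptide attached via GGGS linker.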

Which protein stability index does the source give for VTWNFIVYVCCF here?
The protein stability index was 0.189 ± 0.017.

VVFLWRCRLLLG was tested. Which protein stability index did it give?
Its protein stability index is 0.0938 ± 0.011.

VVFRCSSFFCLV was tested. Which protein stability index did it give?
The protein stability index was 0.387 ± 0.033.

VVIYWFLPIIFA was tested. Which protein stability index did it give?
The protein stability index was 0.266 ± 0.006.

With VVLGLFCVRMGT as the sequence, how does the protein stability index read?
The protein stability index was 0.418 ± 0.01.

For VVLVGVAVCRLG, which protein stability index is on record?
Its protein stability index is 0.244 ± 0.01.

Which protein stability index does the source give for VVNFLVFRFFCI here?
The protein stability index was 0.216 ± 0.016.

Which protein stability index does the source give for VVPYPFLTLLNI here?
Its protein stability index is 0.589 ± 0.033.

For VVRVSFSFCLSC, which protein stability index is on record?
Its protein stability index is 0.408 ± 0.026.

With VVSVVVLVNSRG as the sequence, how does the protein stability index read?
The protein stability index was 0.3414 ± 0.0024.

How did the protein stability index turn out when VVVLLLVVWFCL was run?
The protein stability index was 0.283 ± 0.0079.

Which protein stability index does the source give for VVVWLFRIKSNV here?
The protein stability index was 0.279 ± 0.0084.

For VWGLWRLCVWGV, which protein stability index is on record?
The protein stability index was 0.274 ± 0.0082.

Which protein stability index does the source give for VWLFSWSVVGGT here?
Its protein stability index is 0.369 ± 0.014.

How did the protein stability index turn out when VWSVSVTIVGRR was run?
Its protein stability index is 0.439 ± 0.032.

With VYFASCVVLLMV as the sequence, how does the protein stability index read?
The protein stability index was 0.159 ± 0.0018.

For VYLVVLYLRYFA, which protein stability index is on record?
The protein stability index was 0.173 ± 0.0089.

Which protein stability index does the source give for VYVYTIRVRWSE here?
Its protein stability index is 0.164 ± 0.021.

Which protein stability index does the source give for WAFVVCGAVFFW here?
The protein stability index was 0.289 ± 0.024.

With WCLLGVPVRVVV as the sequence, how does the protein stability index read?
The protein stability index was 0.253 ± 0.0041.

How did the protein stability index turn out when WCVCVSMRMIAI was run?
Its protein stability index is 0.202 ± 0.0073.

How did the protein stability index turn out when WFIFATFLILVT was run?
Its protein stability index is 0.154 ± 0.014.

For WFLVLLFFWFLL, which protein stability index is on record?
Its protein stability index is 0.55 ± 0.036.

Which protein stability index does the source give for WFYLLFVLFGLV here?
Its protein stability index is 0.409 ± 0.027.

How did the protein stability index turn out when WHFPCPPLPCPV was run?
The protein stability index was 0.298 ± 0.0082.

With WILLVLACFSSG as the sequence, how does the protein stability index read?
Its protein stability index is 0.215 ± 0.011.

For WLGCVLIGWHVL, which protein stability index is on record?
The protein stability index was 0.169 ± 0.0054.

How did the protein stability index turn out when WLKLWSYVTHLG was run?
The protein stability index was 0.303 ± 0.0094.

Which protein stability index does the source give for WSLRFRRMMLRC here?
Its protein stability index is 0.137 ± 0.0015.

With WVVVARIFSVFF as the sequence, how does the protein stability index read?
The protein stability index was 0.308 ± 0.011.

For WVVVKITAHTAT, which protein stability index is on record?
The protein stability index was 0.185 ± 0.0081.

With WYAGIVFTRVWM as the sequence, how does the protein stability index read?
The protein stability index was 0.466 ± 0.015.

Which protein stability index does the source give for YAFLWCVFYLSF here?
The protein stability index was 0.216 ± 0.0098.

With YCCDYFMFVLVV as the sequence, how does the protein stability index read?
Its protein stability index is 0.184 ± 0.009.

How did the protein stability index turn out when YDLRRIGRIGVG was run?
The protein stability index was 0.3542 ± 0.003.

YFIVVSWFLVCW was tested. Which protein stability index did it give?
The protein stability index was 0.072 ± 0.017.

For YFLFRYIVITVF, which protein stability index is on record?
The protein stability index was 0.0326 ± 0.015.

With YFRKDYRKMAQH as the sequence, how does the protein stability index read?
The protein stability index was 0.17256 ± 0.00013.

For YGAGDLTKYFIV, which protein stability index is on record?
Its protein stability index is 0.114 ± 0.0065.

How did the protein stability index turn out when YHFRLLVTCCPC was run?
The protein stability index was 0.225 ± 0.0037.

With YLCCFSVAFFLG as the sequence, how does the protein stability index read?
Its protein stability index is 0.131 ± 4.8e-05.

YLFDQYDWYKSM was tested. Which protein stability index did it give?
The protein stability index was 0.156 ± 0.0072.

Which protein stability index does the source give for YLLTAFLSAFNP here?
The protein stability index was 0.529 ± 0.041.

YLMVSKMSLRIG was tested. Which protein stability index did it give?
Its protein stability index is 0.296 ± 0.054.

With YPGMFLQLVWWI as the sequence, how does the protein stability index read?
Its protein stability index is 0.1211 ± 0.0011.

Which protein stability index does the source give for YPSASLLPLFSC here?
The protein stability index was 0.126 ± 0.018.

How did the protein stability index turn out when YQFDGLVFLRLS was run?
The protein stability index was 0.3501 ± 0.0014.

Which protein stability index does the source give for YRFVWRWIPICA here?
The protein stability index was 0.0307 ± 0.0093.

YRWERIYIGLRL was tested. Which protein stability index did it give?
Its protein stability index is 0.191 ± 0.008.

With YSALHNPPQPVT as the sequence, how does the protein stability index read?
Its protein stability index is 0.658 ± 0.014.

YTLWFLAWGLVF was tested. Which protein stability index did it give?
The protein stability index was 0.209 ± 0.011.

Which protein stability index does the source give for YWRNYLVLVCKF here?
Its protein stability index is 0.487 ± 0.07.

With YYLHFRFFIYVF as the sequence, how does the protein stability index read?
Its protein stability index is 0.0759 ± 0.019.

Same assay, conditions: genetic background: wild type; temperature: 30 C

VNFVLTLYPYLV was tested. Which protein stability index did it give?
Its protein stability index is 0.278 ± 0.02.

VPPLPPPGPPTF was tested. Which protein stability index did it give?
The protein stability index was 0.6765 ± 0.0056.

For VQLLTRLKTPHP, which protein stability index is on record?
The protein stability index was 0.65 ± 0.024.

Which protein stability index does the source give for VRDQGWILNMLL here?
The protein stability index was 0.422 ± 0.028.

For VRICVVLRVCWW, which protein stability index is on record?
The protein stability index was 0.12 ± 0.024.

With VRINLLFVWFSR as the sequence, how does the protein stability index read?
The protein stability index was 0.334 ± 0.04.

VRLSQVNRLICT was tested. Which protein stability index did it give?
The protein stability index was 0.426 ± 0.0098.

For VRRGAVWCCLCG, which protein stability index is on record?
Its protein stability index is 0.405 ± 0.014.

For VRVLAALVLCVV, which protein stability index is on record?
The protein stability index was 0.189 ± 0.011.

For VRYCFFWVRAVV, which protein stability index is on record?
The protein stability index was 0.194 ± 0.022.

With VTGYLSTLTMLC as the sequence, how does the protein stability index read?
Its protein stability index is 0.247 ± 0.03.

VTWNFIVYVCCF was tested. Which protein stability index did it give?
The protein stability index was 0.19 ± 0.014.

How did the protein stability index turn out when VVFLWRCRLLLG was run?
Its protein stability index is 0.115 ± 0.027.
